Source: the supplement of paper PMC7877785
± gives the uncertainty stated by the source.

Test: self-splicing fitness, log relative to wild type (ln ratio); higher = more splicing; Tetrahymena group I intron in knt gene, E. coli kanamycin selection, DiMSum; sequences stand for … in CUCUCU…GGAGGGAAAAGUUAUCAGGCAUGCACCUGGUAGCUAGUCUUUAAACCAAUAGAUUGCAUCGGUUUAAAAGGCAAGACCGUCAAAUUGCGGGAAAGGGGUCAACAGCCGUUCAGUACCAAGUCUCAGGGGAAACUUUGAGAUGGCCUUGCAAAGGGUAUGGUAAUAAGCUGACGGACAUGGUCCUAACCACGCAGCCAAGUCCUAAGUCAACAGAUCUUCUGUUGAUAUGGAUGCAGUUCACAGACUAAAUGUCGGUCGGGGAAGAUGUAUUCUUCUCAUAAGAUAUAGUCGGACCUCUCCUUAAUGGGAGCUAGCGGAUGAAGUGAUGCAACACUGGAGCCGCUGGGAACUAAUUUGUAUGCGAAAGUAUAUUGAUUAGUUUUGGAGUACUCGUGGUCG
How it was run: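 Colonies from six replicate transformations of E. coli BL21(DE3) were pooled and amplicon-sequenced on an Illumina HiSeq 2500. The library placed an intron with all eight P1ex-region nucleotides randomised inside the knt kanamycin-resistance gene on pET-22b(+), and cells grew overnight at 37°C or 30°C on LB agar with or without 25 μg/mL kanamycin (plus 100 μg/mL carbenicillin, 50 μM IPTG, 0.2% rhamnose). Fitness is the DiMSum error-weighted combination of wild-type-normalised replicate fold changes, kanamycin versus none.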

| Sequence | self-splicing fitness (ln) (30 °C) | self-splicing fitness (ln) (37 °C) |
| --- | --- | --- |
| ACACAGCAAUAUUACGUCUG | -1.65 ± 0.055 | -0.547 ± 0.061 |
| AAAGAGCAAUAUUACGAAGG | -3.52 ± 0.33 | -2.64 ± 0.41 |
| UUACAGCAAUAUUACGUACG | -0.291 ± 0.075 | 0.0876 ± 0.1 |
| ACAUAGCAAUAUUACGACAG | -1.46 ± 0.099 | -0.508 ± 0.11 |
| UGGGAGCAAUAUUACGGCGG | -2.86 ± 0.4 | -1.23 ± 0.46 |
| UCCUAGCAAUAUUACGCAAC | -2.76 ± 0.21 | -3.38 ± 0.42 |
| UUAGAGCAAUAUUACGCGAA | -0.809 ± 0.14 | -0.155 ± 0.18 |
| AAGGAGCAAUAUUACGCCGG | -3.01 ± 0.4 | -2.6 ± 0.36 |
| CGAGAGCAAUAUUACGAUGG | -3.15 ± 0.2 | -0.694 ± 0.16 |
| ACCGAGCAAUAUUACGCGGA | -2.09 ± 0.1 | -0.721 ± 0.089 |
| AGUGAGCAAUAUUACGAUAU | -3.14 ± 0.25 | -2.22 ± 0.28 |
| AGAAAGCAAUAUUACGAUUA | -0.175 ± 0.12 | -0.183 ± 0.15 |
| CACUAGCAAUAUUACGGAUG | -2.42 ± 0.083 | -1.39 ± 0.079 |
| CCCCAGCAAUAUUACGCAGG | -3.34 ± 0.12 | -2.52 ± 0.16 |
| GUGGAGCAAUAUUACGCCUA | -3 ± 0.29 | -1.96 ± 0.2 |
| CGGCAGCAAUAUUACGUCGU | -3.21 ± 0.2 | -2.64 ± 0.21 |
| AGCUAGCAAUAUUACGAUUC | -1.8 ± 0.11 | -0.417 ± 0.15 |
| UGGGAGCAAUAUUACGAGUC | – | -1.83 ± 0.47 |
| ACCUAGCAAUAUUACGAGCA | -1.17 ± 0.1 | -1.59 ± 0.14 |
| GCUUAGCAAUAUUACGGAUA | -2.7 ± 0.39 | -1.71 ± 0.31 |
| CCGUAGCAAUAUUACGGGCG | -2.81 ± 0.17 | -1.34 ± 0.14 |
| CAUGAGCAAUAUUACGGAUG | -3.02 ± 0.31 | -2.01 ± 0.26 |
| UUACAGCAAUAUUACGCCCG | -0.115 ± 0.18 | 0.245 ± 0.25 |
| AUAGAGCAAUAUUACGGCUG | -1.13 ± 0.13 | 0.795 ± 0.2 |

| Sequence | self-splicing fitness (ln) (30 °C) | self-splicing fitness (ln) (37 °C) |
| --- | --- | --- |
| CUAAAGCAAUAUUACGUCAC | -2.66 ± 0.14 | -2.62 ± 0.22 |
| AGUAAGCAAUAUUACGUGUC | -3.49 ± 0.21 | -2.24 ± 0.2 |
| UAGAAGCAAUAUUACGAGUA | -1.31 ± 0.096 | -0.33 ± 0.12 |
| AGCGAGCAAUAUUACGAAUU | – | -1.41 ± 0.34 |
| CUGCAGCAAUAUUACGGUUU | -3.11 ± 0.13 | -1.43 ± 0.12 |
| CUGAAGCAAUAUUACGCUGC | -2.12 ± 0.34 | – |
| GUCCAGCAAUAUUACGAUGG | -3.74 ± 0.16 | -3.37 ± 0.25 |
| GCCCAGCAAUAUUACGUCGG | -3.13 ± 0.13 | -3.08 ± 0.2 |
| GCCCAGCAAUAUUACGACGC | -0.00307 ± 0.052 | -0.0866 ± 0.067 |
| UUCCAGCAAUAUUACGACCU | -2.38 ± 0.26 | -3.19 ± 0.39 |
| GACAAGCAAUAUUACGGUUA | -0.281 ± 0.079 | -0.186 ± 0.077 |
| AGACAGCAAUAUUACGUGUU | -3.8 ± 0.16 | -2.29 ± 0.14 |
| UGGUAGCAAUAUUACGCGCU | -2.58 ± 0.18 | -1.31 ± 0.18 |
| CUUGAGCAAUAUUACGACGC | -2.13 ± 0.39 | -1.9 ± 0.46 |
| AACAAGCAAUAUUACGUACA | -1.04 ± 0.095 | -0.329 ± 0.11 |
| CCAGAGCAAUAUUACGGUAA | -2.75 ± 0.22 | -2.33 ± 0.26 |
| GUUGAGCAAUAUUACGUCCU | -1.27 ± 0.17 | -1.47 ± 0.21 |
| AUGAAGCAAUAUUACGCUUA | -0.65 ± 0.061 | -0.151 ± 0.075 |
| UGUCAGCAAUAUUACGCAGA | -2.8 ± 0.25 | -2.38 ± 0.5 |
| CUGGAGCAAUAUUACGUCAC | -2.63 ± 0.39 | -2.53 ± 0.39 |
| GUUAAGCAAUAUUACGCCGA | -1.83 ± 0.19 | -0.947 ± 0.18 |
| CGUCAGCAAUAUUACGAAGG | -0.693 ± 0.074 | -0.652 ± 0.11 |
| AGAGAGCAAUAUUACGCUUG | -2.97 ± 0.3 | -2.46 ± 0.35 |
| CGGCAGCAAUAUUACGACUA | -0.68 ± 0.097 | 0.0629 ± 0.12 |
